Patent CN117460529A (dated 2024)

How the values were obtained:
细胞表面上表达的人ICOS [1] = target: T1, 细胞表面上表达的人ICOS (human, UniProt Q9Y6W8 21-199); assay: receptor occupancy on patients' CD4 memory T cells, chip cytometry
T1 construct: whole, on cells; also called hICOS; human ICOS on CHO-S cells
T1 sequence (looked up): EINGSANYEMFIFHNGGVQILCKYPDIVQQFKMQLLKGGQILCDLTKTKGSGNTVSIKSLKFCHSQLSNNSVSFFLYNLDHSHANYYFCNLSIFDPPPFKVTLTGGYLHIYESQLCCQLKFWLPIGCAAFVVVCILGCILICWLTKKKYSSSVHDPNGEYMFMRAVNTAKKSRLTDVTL

人ICOS (HTRF测定) = target: T2, 人ICOS (HTRF测定) (human, UniProt Q9Y6W8 21-140, limits assumed); assay: HTRF binding assay, HEK supernatant with human IgG1 antibody
T2 construct: the HTRF construct is described only in US 9,957,323; also called human ICOS; ICOS受体
T2 sequence (looked up): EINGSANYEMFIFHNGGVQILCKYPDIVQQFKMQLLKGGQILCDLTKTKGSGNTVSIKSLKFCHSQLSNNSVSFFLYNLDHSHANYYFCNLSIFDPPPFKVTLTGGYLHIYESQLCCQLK

小鼠ICOS (HTRF测定) = target: T3, 小鼠ICOS (HTRF测定) (mouse, UniProt Q9WVS0 21-144, limits assumed); assay: as above
T3 construct: the HTRF construct is described only in US 9,957,323; also called mouse ICOS; mICOS
T3 sequence (looked up): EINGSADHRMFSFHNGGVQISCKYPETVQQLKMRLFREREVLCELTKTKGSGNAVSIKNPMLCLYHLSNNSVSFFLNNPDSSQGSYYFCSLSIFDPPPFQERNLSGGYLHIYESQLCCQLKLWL

细胞表面上表达的人ICOS [2] = target: T1, 细胞表面上表达的人ICOS; assay: flow cytometry on CHO-S cells expressing ICOS, purified IgG1
CHO-S细胞表面上表达的小鼠ICOS [3] = target: T4, CHO-S细胞表面上表达的小鼠ICOS (mouse, UniProt Q9WVS0 21-200); assay: as above
T4 construct: whole, on cells; also called mICOS; mouse ICOS on CHO-S cells
T4 sequence (looked up): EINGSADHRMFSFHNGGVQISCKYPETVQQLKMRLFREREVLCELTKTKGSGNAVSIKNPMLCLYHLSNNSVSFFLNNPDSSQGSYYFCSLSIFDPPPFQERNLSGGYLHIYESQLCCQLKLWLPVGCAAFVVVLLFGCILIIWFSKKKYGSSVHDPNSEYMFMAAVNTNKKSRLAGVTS

细胞表面上表达的人ICOS [4] = target: T1, 细胞表面上表达的人ICOS; assay: Mirrorball assay on CHO-S cells expressing ICOS; total binding defined by reference antibody, non-specific by hybrid control hIgG1
CHO-S细胞表面上表达的小鼠ICOS [5] = target: T4, CHO-S细胞表面上表达的小鼠ICOS; assay: as above

| Binder | binding result (细胞表面上表达的人ICOS [1]) | 作用 (% effect, 等式1) (人ICOS (HTRF测定)) [%] | 作用 (% effect, 等式1) (小鼠ICOS (HTRF测定)) [%] | fold over negative control (几何平均值) (细胞表面上表达的人ICOS [2]) | fold over negative control (几何平均值) (CHO-S细胞表面上表达的小鼠ICOS [3]) | 作用 (% effect) (细胞表面上表达的人ICOS [4]) [%] | 作用 (% effect) (CHO-S细胞表面上表达的小鼠ICOS [5]) [%] |
| --- | --- | --- | --- | --- | --- | --- | --- |
| STIM003 (antibody, V domains shown, also called KY1044; SAR445256) VH: EVQLVESGGGVVRPGGSLRLSCVASGVTFDDYGMSWVRQAPGKGLEWVSGINWNGGDTDYSDSVKGRFTISRDNAKNSLYLQMNSLRAEDTALYYCARDFYGSGSYYHVPFDYWGQGILVTVSS VL: EIVLTQSPGTLSLSPGERATLSCRASQSVSRSYLAWYQQKRGQAPRLLIYGASSRATGIPDRFSGDGSGTDFTLSISRLEPEDFAVYYCHQYDMSPFTFGPGTKVDIKR | binds | – | – | – | – | – | – |
| CL-61091 (antibody, V domains shown) VH: QVQLMQSGTEVKKPGASVKVSCKTSGYTFTTYGITWVRQAPGQGLEWMGWISAYSGDTDYAQKFQGRVTVTTDTSTNTAYMELRSLKSDDTAVYYCARSSGWPHHYGMDVWGQGTTVTVSS VL: DIVMTQSPLSLPVTPGEPASISCRSSQSLLHSNGFNYFDWYLQKPGQSPQLLIFLVSNRASGVPDRFSGSGSGTDFTLKISRVEAEDVGIYYCMQALQTPLTFGGGTKVEIK | – | > 5 | > 5 | > 10 倍 | > 10 倍 | > 1 | > 1 |
| CL-74570 (antibody, V domains shown) VH: EVQLVESGGGVIRPGGSLRLSCAASGFTFDDYGMSWVRQAPGKGLEWVSGINWIGDNTDYADSVKGRFTISRDNAKNSLYLQMNSLRAEDTALYYCARDYFGSGSYYNVPF VL: not shown | – | > 5 | > 5 | > 10 倍 | > 10 倍 | > 1 | > 1 |
